Measurements: patent publication US7892767B2, “Phosphospecific chemokine receptor antibodies” (Washington University in St. Louis, priority 2005, dated 2011)

Target: T1, CXCR4 (Homo sapiens, UniProt P61073)
T1 construct: lysates from the glioblastoma cell line LN428, which is known to express high levels of CXCR4; endogenous in cells; host or cells: LN428 GBM cell line
Assay: Stimulated CXCR4 phosphorylation in LN428 GBM cells (western blot)
Format: cell-based
Procedure: Cell Culture, transfections and stimulation of CXCR4 phosphorylation. The U87 glioblastoma multiforme (GBM, grade IV) cell line was obtained from the American Type Culture Collection. The LN428 GBM cell line was a kind gift of Dr Erwin van Meir (Winship Cancer Center, Emory University, Atlanta, Ga.). U87 cells were grown in minimum essential a media supplemented with 10% fetal bovine serum ((FBS), Biomedia, Foster City, Calif.). LN428 cells were grown in DMEM (Fisher, Pittsburgh, Pa.) supplemented with 10% horse serum (Sigma). All cells were grown in the presence of penicillin-streptomycin. The coding sequence for human CXCR4 was obtained by high fidelity RT-PCR (Superscript III Platinum, Invitrogen), and cloned into the expression vector pMSCVneo (Clontech, Palo Alto, Calif.). Transfections were performed with 0.3 μg of plasmid DNA in 20 μl Lipofectamine (Invitrogen)/35 mm^2 tissue culture dish for 9 hours according to the manufacturer's instructions. Cells recovered in Optimem supplemented with 10% FBS. Transfected and non-transfected cells were placed in serum free media for 24 hours prior to treatment with agents to stimulate CXCR4 phosphorylation. Treatment was usually for 0 or 10 minutes with 1 μg/ml CXCL12 (Peprotech, Rocky Hill N.J.), 4 μM 4-Phorbol 12-myristate 13-acetate (PMA) or 10 nM EGF. In some experiments, CXCL12 was washed away and cells were incubated for an additional 20 minutes in serum free media alone.
Western Blot Analysis. […] Peroxide activity was detected using the enhanced chemiluminescence Supersignal West Dura system (Pierce, Rockford, Ill.). […]
The utility of these antibodies for evaluating the relationship between ligand binding and CXCR4 function is dependent upon their ability to distinguish a ligand activated form of the receptor. […] Serum starved LN428 cells were treated with 1 μg/ml CXCL12 for 0 or 10 minutes and the abundance of phospho-CXCR4 was determined by western blot and immuno-localization in fixed cells. […]

[1] = 1 μg/ml CXCL12, 4 μM PMA or 10 nM EGF

T1 sequence (P61073 whole entry): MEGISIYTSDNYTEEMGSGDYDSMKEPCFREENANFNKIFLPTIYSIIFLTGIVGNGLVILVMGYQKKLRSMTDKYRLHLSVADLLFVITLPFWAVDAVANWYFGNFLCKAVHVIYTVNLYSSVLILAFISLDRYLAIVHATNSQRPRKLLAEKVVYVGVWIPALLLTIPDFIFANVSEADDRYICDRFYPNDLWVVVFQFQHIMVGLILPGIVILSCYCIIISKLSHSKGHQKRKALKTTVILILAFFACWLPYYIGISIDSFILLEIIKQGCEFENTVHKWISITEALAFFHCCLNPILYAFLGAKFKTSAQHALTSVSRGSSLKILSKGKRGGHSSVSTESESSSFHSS

P338 phosphorylation stimulated [1]: not
P339 phosphorylation [1]: stimulated
P339-CXCR4 immunoreactivity compared with response to CXCL12 (4 μM PMA or 10 nM EGF): greater
B1: EGF: growth factor, ligand of the EGF receptor (protein, UniProt P01133 23-1207, looked up)
Pro-epidermal growth factor: PQHWSCPEGTLAGNGNSTCVGPAPFLIFSHGNSIFRIDTEGTNYEQLVVDAGVSVIMDFHYNEKRIYWVDLERQLLQRVFLNGSRQERVCNIEKNVSGMAINWINEEVIWSNQQEGIITVTDMKGNNSHILLSALKYPANVAVDPVERFIFWSSEVAGSLYRADLDGVGVKALLETSEKITAVSLDVLDKRLFWIQYNREGSNSLICSCDYDGGSVHISKHPTQHNLFAMSLFGDRIFYSTWKMKTIWIANKHTGKDMVRINLHSSFVPLGELKVVHPLAQPKAEDDTWEPEQKLCKLRKGNCSSTVCGQDLQSHLCMCAEGYALSRDRKYCEDVNECAFWNHGCTLGCKNTPGSYYCTCPVGFVLLPDGKRCHQLVSCPRNVSECSHDCVLTSEGPLCFCPEGSVLERDGKTCSGCSSPDNGGCSQLCVPLSPVSWECDCFPGYDLQLDEKSCAASGPQPFLLFANSQDIRHMHFDGTDYGTLLSQQMGMVYALDHDPVENKIYFAHTALKWIERANMDGSQRERLIEEGVDVPEGLAVDWIGRRFYWTDRGKSLIGRSDLNGKRSKIITKENISQPRGIAVHPMAKRLFWTDTGINPRIESSSLQGLGRLVIASSDLIWPSGITIDFLTDKLYWCDAKQSVIEMANLDGSKRRRLTQNDVGHPFAVAVFEDYVWFSDWAMPSVMRVNKRTGKDRVRLQGSMLKPSSLVVVHPLAKPGADPCLYQNGGCEHICKKRLGTAWCSCREGFMKASDGKTCLALDGHQLLAGGEVDLKNQVTPLDILSKTRVSEDNITESQHMLVAEIMVSDQDDCAPVGCSMYARCISEGEDATCQCLKGFAGDGKLCSDIDECEMGVPVCPPASSKCINTEGGYVCRCSEGYQGDGIHCLDIDECQLGEHSCGENASCTNTEGGYTCMCAGRLSEPGLICPDSTPPPHLREDDHHYSVRNSDSECPLSHDGYCLHDGVCMYIEALDKYACNCVVGYIGERCQYRDLKWWELRHAGHGQQQKVIVVAVCVVVLVMLLLLSLWGAHYYRTQKLLSKNPKNPYEESSRDVRSRRPADTEDGMSSCPQPWFVVIKEHQDLKNGGQPVAGEDGQAADGSMQPTSWRQEPQLCGMGTEQGCWIPVSSDKGSCPQVMERSFHMPSYGTQTLEGGVEKPHSLLSANPLWQQRALDPPHQMELTQ
modifications: Pro-epidermal growth factor
notes: growth factor, ligand of the EGF receptor
